{
  "source": "patent US20260078171A1",
  "about": "(INVIVYD, published 2026)",
  "binders": {"B1": {"name": "ADI-58125 (Fab, V domains shown)", "VH": "EVQLVESGGGLVKPGGSLRLSCAASGFTFSSYYMNWVRQAPGKGLEWVSSISEDGYSTYYPDSLKGRFTISRDSAKNSLYLQMNSLRADDTAVYYCARDFSGHTAWAGTGFEYWGQGTLVTVSS", "VL": "QSVLTQPPSVSGAPGQRITISCTGSSSNIGAGYDVHWYQQLPGTAPKLLIYGSSSRNSGVPDRFSGSKSGTSASLAITGLQAEDEADYYCQSYDSSLSVLYTFGTGTKVTVLG"}, "B2": {"name": "VYD222 Fab (Fab, V domains shown)", "VH": "B1 VH with S30G, Y33E, S101G, H103D, E112T", "VL": "QSVLTQPPSVSGAPGQRITISCTGSSSNIGAGYDVHWYQQLPGTAPKLLIYGSSSRNYGVPDRFSGSKSGTSASLAITGLQAEDEADYYCQSYDSDLGVLYTFGTGTKVTVL"}},
  "key": {"[1]": {"target": "T1, WT SARS-CoV-2 spike S1 subunit (SARS-CoV-2, UniProt P0DTC2 16-685)", "test": "bio-layer interferometry (BLI, Octet), monovalent Fab affinity"}, "[2]": {"target": "SARS-CoV spike S1 subunit (SARS-CoV, UniProt P59594 14-667)", "test": "BLI (Octet), Fab, monovalent"}, "[3]": {"target": "T1, WT SARS-CoV-2 spike S1 subunit", "test": "BLI (Octet), Fab, monovalent"}},
  "note": "Residue numbers refer to the chain shown, from its start.",
  "data": [
    {"binder": "B1", "values": [
      {"measurement": "Kd", "setting": "[1]", "result": 0.6, "unit": "nM"}
    ]},
    {"binder": "B2", "values": [
      {"measurement": "Kd", "setting": "[2]", "result": 0.478, "unit": "nM"},
      {"measurement": "Kd", "setting": "[3]", "result": 2.14, "unit": "nM"}
    ]}
  ]
}
